According to the PETadex activity labels:

B1: unnamed (protein)
chain: MKNAPIRSVLATCLVAAAASALAQTTAPTSASLNASAGPLSVSTASVTAPRGFGGGTIYYPTTQARYGVIAISPGFTATQISIAWLGRRIATHGFVVITLNTLTTLDQPDSRANQLMAALNHVINSSSSAVKARIDTSRLAVAGHSMGGGGALIAARDNPTLKASYPLTPWNINSAFTTVRVPTMIVGADGDTIAPVGTHARPFYAALPGATSKAYGELNGATHFSPNSTNTPIGRYGVAWMKRFLDGDTRYSTFLCGTEHTRYATALVFDRYNQNCPY
B2: unnamed (protein)
chain: MKFNLSEKWLIALLASSLSFNALAVGGGGDDDDPPSCETDCGYERGPDPTASSLEADDGPYNVSTINVSSFVSGFGGGTIHYPRGTSGTMGAIAVVPGFVSSESDIIWWGSRIASHGFVVITIDTNSGFDQPDSRANQLSAALDYVIDESDSSSSAISGMVDSSRLGVMGWSMGGGGSLKLATDRNLMAIIPQAPYYSGFNDFDEITTPTLIIACENDAVAPVSSHASSFYYDIPSSTDKAFLEINNGSHYCGNTGNANEDILGKYGVAWMKRFIDLDQRYDQFLCGPNHDAPYAISEYRDTCN
B3: unnamed (protein)
chain: MVGYLEAVANYFPDTKWANYTTGYDGGTGGQTGFYNVMLQNSPLGALSWWNASCEFHDVMVEQAADTAARVPSNYRYYIGAGSAHTMYGSDKVYSDQSGGESQTILDWVNDMLAFDPAAADPGAPSWQSVECDDCEIVLPGDPLPRSLPTAPFALDIAGNPVIRCPPFPRGPDPTPAALEADLGPFPVRSYRPFFTPGFGAGTIWYPANPNPGPFAVIAVSPGFRAPESTMAWVGPRLASNGFIVITISTQSPFDNPTSRAKQLMAALRLVAAEGRRPSPIIGRVDGDRTGLIGHSMGGGGSLIAARDNPSVDAIIPLAPWNSPAKDFSAVEAASLIVACERDEIARVSQHAKPFYDSIPAADVNKAFLEFRGADHLCVMVGNDHYATLGKYIVAWMKAFLDSDTRYDEYLCG
B4: unnamed (protein)
chain: MVVIRTTNTTPTLQVTLMTTISVRKSALFVFAATAVLFSMSAFSFNPPTEPEPDPGPSPCQTDCGFTRGPNPTASYLEASTGPYAVRTTDVSRYVSGFGGGTIHYPAGTTGEMGAIAIVPGFFASESSIQWWGPRLASHGFVVITISTNSVFDQPGSRSAQLENALDYVISQSNSPTSGILGMVDSSRVGAMGWSMGGGGTLRLASSERLSAAIPLAPWNTGSNNFDQIDTPTLIFACENDGTAPVSQHASPFYNRIPGATAKAYFEINNGQHSCANGGGSNGGLLGKYGVSWMKLHIDKDDRYNRFLCGPNHAANSAISEYRGTCPY
B5: unnamed (protein)
chain: MFIMIKKSELAKAIIVTGALVFSIPTLAEVTLSETTVSSIKSEATVSSTKKALPATPSDCIADSKITAVALSDTRDNGPFSIRTKRISRQSAKGFGGGTIHYPTNASGCGLLGAIAVVPGYVSYENSIKWWGPRLASWGFVVITINTNSIYDDPDSRAAQLNAALDNMIADDTVGSMIDPKRLGAIGWSMGGGGALKLATERSTVRAIMPLAPYHDKSYGEVKTPTLVIACEDDRIAETKKYANAFYKNAIGPKMKVEVNNGSHFCPSYRFNEILLSKPGIAWMQRYINNDTRFDKFLCANENYSKSPRISAYDYKDCP
B6: unnamed (protein)
chain: MKTSNSRRRRLAVAAGALLLAAAAHAQTNPYQKGPDPTSASLEATAGPFAVSTTSVSSSASGFGGGTIYYPTTAGSYGAIAISPGFTATQSSIAWLGRRLASHGFVVITIDTNSTLDQPASRATQLMAALNYVVNSSSSTVRSRVDANRLGVAGHSMGGGGTLIAARDNPTLKAAVPLTPWNTTKNFSSVTVPTLIIGAENDTVAPVSSHAIPFYNSLPSSTDKAYAELNGASHFAPNSSNTPIGKYSVAWMKRFVDNDTRYSPFLCGAPHTAYATSSAVSDYRSTCPY
B7: unnamed (protein)
chain: MFNQIGKKSALSLMAAGSLMFSATALAIGGGGSGGGNNGGGGGCEADCGYERGPDPSVSLLEASTGPFSVRTSNVSSSVRGFGGGTIHYPTNTTGTMAAIVVIPGFVSPESSIAWWGPKLASHGFVVMTIGTNSGFDQPASRASQLNNALDYLIEQNGSSRSPINGMIDTDRLGVMGWSMGGGGTLRVATEGRVSAAIPLAPWDSSSSQFRSIDTPTLIFACENDSTAPVRSHADPFYDAIPDSTAKAFVELDGGGHTCANGSSGFGGSYNDVLSRLGVSWMKLHLDKDQRYNQFVCGPNHESDRSISEYRGTCPY

These proteins were tested on BHET. Conditions: 120 h.

Plate clearing, not clears the plate:
B1, B3, B4, B5, B6, B7

Same assay, conditions: 120 h; part of the chain shown

Plate clearing, not clears the plate:
B2
